4 substances from paper PMC8669613 can be followed below.

Where two headings read alike, the source gives them in different places.

The target of assay [1] is HA-mCherry-tagged SdhA (Legionella pneumophila). Nature of the assay: co-IP.
Assay [2] concerns the target His-tagged ASH/RhoGAP domain of OCRL (536aa-901aa) (human) (UniProt Q01968). Nature of the assay: ELISA. Background: ELISA stands for enzyme-linked immunosorbent assay.
Assay [3] shares this target. Nature of the assay: ELISA. The source holds these as a separate data set.
Assay [4] has the same target. Nature of the assay: ELISA. The source holds these as a separate data set.

His-tagged ASH/RhoGAP domain of OCRL (536aa-901aa) (human), sequence (Q01968 536-901): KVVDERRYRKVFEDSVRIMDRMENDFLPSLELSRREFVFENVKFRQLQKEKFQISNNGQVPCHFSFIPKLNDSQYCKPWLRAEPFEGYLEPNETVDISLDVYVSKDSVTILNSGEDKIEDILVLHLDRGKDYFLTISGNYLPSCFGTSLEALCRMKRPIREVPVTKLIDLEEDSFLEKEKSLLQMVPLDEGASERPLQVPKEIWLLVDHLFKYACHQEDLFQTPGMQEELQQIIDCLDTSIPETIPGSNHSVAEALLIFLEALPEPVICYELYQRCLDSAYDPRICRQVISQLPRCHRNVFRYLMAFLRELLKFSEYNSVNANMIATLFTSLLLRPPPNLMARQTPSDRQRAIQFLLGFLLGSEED
GFP-tagged, full-length OCRL, sequence (Q01968 whole entry): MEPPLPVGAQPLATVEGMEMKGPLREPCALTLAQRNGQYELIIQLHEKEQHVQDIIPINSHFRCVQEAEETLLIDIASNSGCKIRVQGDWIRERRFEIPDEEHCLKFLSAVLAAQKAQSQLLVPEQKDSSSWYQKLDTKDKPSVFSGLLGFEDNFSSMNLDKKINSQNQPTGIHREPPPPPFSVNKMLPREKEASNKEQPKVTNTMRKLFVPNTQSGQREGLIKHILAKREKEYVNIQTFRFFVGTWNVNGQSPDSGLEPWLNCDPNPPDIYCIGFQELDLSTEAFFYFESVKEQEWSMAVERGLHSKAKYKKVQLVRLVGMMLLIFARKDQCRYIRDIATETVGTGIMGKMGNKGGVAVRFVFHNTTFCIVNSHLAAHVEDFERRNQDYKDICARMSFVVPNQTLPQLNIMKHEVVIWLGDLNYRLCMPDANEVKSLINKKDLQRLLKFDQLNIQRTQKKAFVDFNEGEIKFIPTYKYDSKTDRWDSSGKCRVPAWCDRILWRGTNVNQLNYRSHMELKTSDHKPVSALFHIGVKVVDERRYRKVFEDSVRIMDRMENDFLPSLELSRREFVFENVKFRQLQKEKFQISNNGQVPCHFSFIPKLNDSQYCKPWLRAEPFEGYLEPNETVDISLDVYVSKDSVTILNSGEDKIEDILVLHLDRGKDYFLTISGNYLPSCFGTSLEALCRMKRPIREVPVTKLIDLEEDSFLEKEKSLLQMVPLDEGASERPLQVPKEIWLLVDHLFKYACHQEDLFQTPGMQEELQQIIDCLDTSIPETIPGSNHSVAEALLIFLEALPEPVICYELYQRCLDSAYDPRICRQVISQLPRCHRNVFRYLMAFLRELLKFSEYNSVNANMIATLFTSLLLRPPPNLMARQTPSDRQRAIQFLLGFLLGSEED
AP complex beta subunit, sequence (P63010 whole entry, one chain of several): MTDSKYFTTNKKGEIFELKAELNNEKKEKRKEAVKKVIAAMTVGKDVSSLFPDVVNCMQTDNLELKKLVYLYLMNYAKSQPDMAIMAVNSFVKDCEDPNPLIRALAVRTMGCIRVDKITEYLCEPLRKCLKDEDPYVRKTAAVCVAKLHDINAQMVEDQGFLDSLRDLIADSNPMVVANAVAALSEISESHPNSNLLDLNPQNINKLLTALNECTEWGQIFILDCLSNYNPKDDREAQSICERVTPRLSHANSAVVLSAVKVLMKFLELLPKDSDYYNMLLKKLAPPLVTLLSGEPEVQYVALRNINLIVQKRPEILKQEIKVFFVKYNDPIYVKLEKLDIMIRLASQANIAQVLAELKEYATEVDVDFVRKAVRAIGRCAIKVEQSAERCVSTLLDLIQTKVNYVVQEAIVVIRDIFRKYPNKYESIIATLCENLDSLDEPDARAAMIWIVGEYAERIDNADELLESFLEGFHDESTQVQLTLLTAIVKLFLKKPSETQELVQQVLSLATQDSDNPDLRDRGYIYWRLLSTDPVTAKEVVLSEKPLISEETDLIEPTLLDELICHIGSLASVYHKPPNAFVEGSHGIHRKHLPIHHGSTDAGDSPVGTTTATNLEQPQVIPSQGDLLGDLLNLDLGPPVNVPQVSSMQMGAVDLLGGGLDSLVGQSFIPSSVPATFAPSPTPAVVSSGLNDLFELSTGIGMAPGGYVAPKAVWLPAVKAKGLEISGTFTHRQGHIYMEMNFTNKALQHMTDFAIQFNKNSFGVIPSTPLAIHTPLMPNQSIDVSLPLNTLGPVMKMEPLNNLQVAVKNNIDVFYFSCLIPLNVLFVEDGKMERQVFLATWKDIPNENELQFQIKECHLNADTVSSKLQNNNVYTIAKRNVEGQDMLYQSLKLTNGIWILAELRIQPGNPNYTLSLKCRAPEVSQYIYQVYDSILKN

With “AP complex beta subunit (from UniProt P63010 1-937) (natural protein)”, the fold co-precipitation above the HA-mCherry control in assay [1] came to 29.5 fold.
The same measure, in the same setting: the figure for “GFP-tagged, full-length OCRL (from UniProt Q01968 1-901) (natural protein)” is 27.5 fold.
As to “GST-SdhA-CBM2 (1029-1260aa) (from UniProt Q6RCQ3 1029-1260) (domain or fragment)”, the EC50 (in general, the midpoint of the concentration-response curve) in assay [2] turned out to be 80.7 nM; in assay [3], 87.4 nM.
Turning to “GST-SdhA-CBM2A (1029-1080aa) (from UniProt Q6RCQ3 1029-1080) (domain or fragment)”, the figures for the EC50 in assay [2] and in assay [4] were 27.2 nM and 8.1 nM, respectively.
